Experimental data taken from patent publication US20250090680A1.
Residue numbers refer to the chain shown, from its start.

Tests used:
[1] = molecular target: recombinant human GPC3 protein (R&D Systems) (human) (UniProt P51654); test: binding ELISA on plate-coated recombinant hGPC3, detection with goat anti-human Fc secondary antibody and TMB
[2] = molecular target: recombinant hGPC3-His (human) (UniProt P51654); test: Biacore SPR, antibody captured, hGPC3-His analyte, 1:1 model
[3] = molecular target: recombinant human GPC3 protein (R&D Systems) (human) (UniProt P51654); test: ELISA, plate-coated recombinant hGPC3, IgG detected with anti-human Fc
[4] = molecular target: recombinant human GPC3 protein (R&D Systems) (human) (UniProt P51654); test: Octet (BLI) off-rate ranking of scFv
[5] = molecular target: recombinant hGPC3-His (human) (UniProt P51654); test: Biacore SPR, antibody captured, hGPC3-His analyte, 1:1 model; reference ARD-103 IgG

Chain of UniProt P51654 (P51654 25-559): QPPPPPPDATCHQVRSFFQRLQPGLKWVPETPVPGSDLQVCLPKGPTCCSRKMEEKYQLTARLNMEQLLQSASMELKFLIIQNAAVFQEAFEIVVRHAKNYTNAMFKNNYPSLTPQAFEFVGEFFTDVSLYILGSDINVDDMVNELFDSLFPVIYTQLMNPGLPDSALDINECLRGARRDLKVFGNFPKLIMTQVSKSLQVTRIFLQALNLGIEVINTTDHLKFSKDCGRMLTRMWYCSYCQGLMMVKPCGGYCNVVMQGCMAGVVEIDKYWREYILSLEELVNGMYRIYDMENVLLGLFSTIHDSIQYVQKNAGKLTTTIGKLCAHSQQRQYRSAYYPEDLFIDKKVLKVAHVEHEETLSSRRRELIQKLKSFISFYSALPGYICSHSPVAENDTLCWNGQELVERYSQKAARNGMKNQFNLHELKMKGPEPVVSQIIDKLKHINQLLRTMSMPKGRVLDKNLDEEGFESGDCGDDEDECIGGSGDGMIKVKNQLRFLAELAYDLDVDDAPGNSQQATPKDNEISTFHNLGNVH

B1: ARD-103 antibody (IgG) (antibody, V domains shown)
VH: QVQLVESGAEVKKPGASVKVSCKASGYTFTDYEMHWVRQAPGQGLEWMGALDPKTGDTAYSQKFKGRVTLTADKSTSTAYMELSSLTSEDTAVYYCTRFYSYTYWGQGTLVTVSS
VL: DVVMTQSPLSLPVTPGEPASISCRSSQSLVHSNGNTYLHWYLQKPGQSPQLLIYKVSNRFSGVPDRFSGSGSGTDFTLKISRVEAEDVGVYYCSQNTHVPPTFGQGTKLEIKR
EC50 [1]: 0.11 nM | Kd [2]: 3.85 nM | koff [2]: 0.000185 s⁻¹ | kon [2]: 48100 M⁻¹ s⁻¹

B2: P1-B9 IgG variant of ARD-103 (antibody, V domains shown)
VH: B1 VH with Y60L
VL: B1 VL with H39Q, S94G, N96V
EC50 [1]: 0.095 nM | Kd [2]: 3.33 nM | koff [2]: 0.00026 s⁻¹ | kon [2]: 78000 M⁻¹ s⁻¹ | EC50 [3]: 0.1 nM

B3: P3-F7 scFv clone (scFv, part only; not given: linker, domain order, tags, V domains shown, not shown: another chain or arm of the molecule; small tags and cut ends)
VH: B1 VH
VL: DVVMTQSPLSLPVTPGEPASISCRSSQSLVHSNGNTYLQWYLQKPGQSPQLLIYKVSNRFSGVPDRFSGSGSGTDFTLKISRVEAEDVGVYYCVQVTHVPPTFGQGTKLEIK
koff [4]: 0.000319 s⁻¹

B4: P1-G5 IgG variant of ARD-103 (antibody, V domains shown)
VH: B1 VH with L51I
VL: B1 VL with H39Q, N96V
EC50 [1]: 0.095 nM | Kd [2]: 4.15 nM | koff [2]: 0.000326 s⁻¹ | kon [2]: 78500 M⁻¹ s⁻¹ | EC50 [3]: 0.1 nM

B5: P1-D6 IgG variant of ARD-103 (antibody, V domains shown)
VH: B1 VH with E6Q, K13N, K54F
VL: B1 VL with S94L, T97G, H98Y
EC50 [1]: 0.11 nM | Kd [2]: 3.62 nM | koff [2]: 0.00033 s⁻¹ | kon [2]: 91300 M⁻¹ s⁻¹ | EC50 [3]: 0.1 nM

B6: P6-D11 IgG variant of ARD-103 (antibody, V domains shown)
VH: B1 VH with E6Q, T58E
VL: B1 VL with S26E, S94V, T97G, H98L, V99F
fold change of ka against ARD-103 [5]: 2 fold | EC50 [1]: 0.094 nM | Kd [2]: 3.02 nM | fold of ka against ARD-103 [2]: 2 fold | koff [2]: 0.000324 s⁻¹ | kon [2]: 107000 M⁻¹ s⁻¹ | EC50 [3]: 0.1 nM

B7: P1-E6 IgG variant of ARD-103 (antibody, V domains shown)
VH: B1 VH with Y60L
VL: B1 VL with Q27S, S94L, T97G, H98I
Kd [2]: 3.95 nM | koff [2]: 0.000299 s⁻¹ | kon [2]: 75600 M⁻¹ s⁻¹

B8: P6-D11 scFv clone (scFv, part only; not given: linker, domain order, tags, V domains shown, not shown: another chain or arm of the molecule; large carriers; small tags and cut ends)
VH: B1 VH with E6Q, T58E
VL: B3 VL with S26E, Q39H, V96N, T97G, H98L, V99F
koff [4]: 0.000122 s⁻¹

B9: P1-B9 scFv clone (scFv, part only; not given: linker, domain order, tags, V domains shown, not shown: another chain or arm of the molecule; large carriers; small tags and cut ends)
VH: B1 VH with Y60L
VL: B3 VL with V94G
koff [4]: 0.00027 s⁻¹

B10: P3-A1 IgG variant of ARD-103 (antibody, V domains shown)
VH: B1 VH with K54S
VL: B1 VL with S32W, S94A
Kd [2]: 2.38 nM | koff [2]: 0.000196 s⁻¹ | kon [2]: 82300 M⁻¹ s⁻¹

B11: P1-A1 scFv clone (scFv, part only; not given: linker, domain order, tags, V domains shown, not shown: another chain or arm of the molecule; large carriers; small tags and cut ends)
VH: B1 VH with K65Q
VL: B3 VL with H31R, Q39H, V96N
koff [4]: 0.0003 s⁻¹

B12: P1-E6 scFv clone (scFv, part only; not given: linker, domain order, tags, V domains shown, not shown: another chain or arm of the molecule; large carriers; small tags and cut ends)
VH: B1 VH with Y60L
VL: B3 VL with Q27S, Q39H, V94L, V96N, T97G, H98I
koff [4]: 0.00048 s⁻¹

B13: P1-D6 scFv clone (scFv, part only; not given: linker, domain order, tags, V domains shown, not shown: another chain or arm of the molecule; large carriers; small tags and cut ends)
VH: B1 VH with E6Q, K13N, K54F
VL: B3 VL with Q39H, V94L, V96N, T97G, H98Y
koff [4]: 0.000193 s⁻¹

B14: P1-A1 IgG variant of ARD-103 (antibody, V domains shown)
VH: B1 VH with K65Q
VL: B1 VL with H31R, S94V
Kd [2]: 1.56 nM | koff [2]: 0.000172 s⁻¹ | kon [2]: 110000 M⁻¹ s⁻¹

B15: P3-F7 IgG variant of ARD-103 (antibody, V domains shown)
VH: B1 VH
VL: B1 VL with H39Q, S94V, N96V
EC50 [1]: 0.1 nM | Kd [2]: 8.46 nM | koff [2]: 0.000724 s⁻¹ | kon [2]: 85600 M⁻¹ s⁻¹ | EC50 [3]: 0.1 nM

B16: P3-A1 scFv clone (scFv, part only; not given: linker, domain order, tags, V domains shown, not shown: another chain or arm of the molecule; large carriers; small tags and cut ends)
VH: B1 VH with K54S
VL: B3 VL with S32W, Q39H, V94A, V96N
koff [4]: 0.000304 s⁻¹

B17: P1-G5 scFv clone (scFv, part only; not given: linker, domain order, tags, V domains shown, not shown: another chain or arm of the molecule; large carriers; small tags and cut ends)
VH: B1 VH with L51I
VL: B3 VL with V94S
koff [4]: 0.000197 s⁻¹
